Reference: IntAct's records for PubMed 22333915

B1: Transcription factor NRM1 (Saccharomyces cerevisiae), P53718 (parent)
chain: MSIMKQRLPLGEFSSSKINKLAIANIADASEPRNHGENNVGTVCLPSIKSLMVSPEVYENTKSLPVPLMRSSGGGMACASKSSCQDGISTKTTSRDYSELSKKLQIRLQFAYYKYKTKQTDKNFTDLKSKHSITRPSKVATHSKSEPLTRRRKLVLSQGHYKTPARSKIKTPSSICSHDNTSSFTSFRGVSESSSTTADMNVADTTTPIRNNINTKHSNSHNRTLYQRQETPTSIKAAKSLIHLFTSNQ

Variants of: B1
Conditions: with rad53_yeast RAD53, P22216
Sequence of rad53_yeast RAD53, P22216 (P22216 whole entry): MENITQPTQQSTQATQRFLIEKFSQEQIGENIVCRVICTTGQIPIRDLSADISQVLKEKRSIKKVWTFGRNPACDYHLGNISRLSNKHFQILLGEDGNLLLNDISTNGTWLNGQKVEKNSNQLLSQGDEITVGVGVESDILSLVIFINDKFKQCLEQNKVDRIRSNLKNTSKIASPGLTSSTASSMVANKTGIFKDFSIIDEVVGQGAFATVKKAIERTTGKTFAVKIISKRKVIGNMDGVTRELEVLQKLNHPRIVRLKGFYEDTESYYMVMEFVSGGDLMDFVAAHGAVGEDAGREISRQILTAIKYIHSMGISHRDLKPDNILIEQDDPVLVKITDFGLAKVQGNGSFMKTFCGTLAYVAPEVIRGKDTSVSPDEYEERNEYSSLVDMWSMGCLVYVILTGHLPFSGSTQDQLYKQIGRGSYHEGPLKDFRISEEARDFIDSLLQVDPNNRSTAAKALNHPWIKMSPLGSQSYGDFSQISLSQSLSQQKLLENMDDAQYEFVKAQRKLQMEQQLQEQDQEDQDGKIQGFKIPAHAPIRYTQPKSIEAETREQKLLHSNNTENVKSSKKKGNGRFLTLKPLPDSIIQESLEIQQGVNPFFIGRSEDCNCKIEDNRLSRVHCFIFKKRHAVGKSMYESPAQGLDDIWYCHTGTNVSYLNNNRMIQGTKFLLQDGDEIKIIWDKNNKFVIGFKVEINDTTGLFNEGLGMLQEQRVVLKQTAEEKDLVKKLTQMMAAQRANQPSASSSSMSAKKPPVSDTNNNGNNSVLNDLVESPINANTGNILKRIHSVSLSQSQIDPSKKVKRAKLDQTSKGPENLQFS

| effect of a mutation on the interaction | Variant |
| --- | --- |
| decreasing interaction | T42A;S47A;S145A;S240A |
